{"source": "paper PMC7033311", "about": "“The Eaf3 chromodomain acts as a pH sensor for gene expression by altering its binding affinity for histone methylated-lysine residues” (Bioscience Reports, 2020)", "molecules": {"B1": {"name": "Histone H3 peptide trimethylated at Lys36 (H3K36me3) (peptide)", "peptide": "SAPSTGGVK(me3)KPHRYKPGT", "notes": "histone H3; source: synthetic peptide (bought: Qiagen and SIGMA Genosys)"}, "B2": {"name": "histone H3 peptide H3T3phoK4me3, titration peptide (printed in Table 1 as H3T3phoK3me3) (peptide)", "chain": "AR[pT][Lys(Me3)]QTARKSTGGKAPRY"}, "B3": {"name": "Eaf3 chromodomain (Eaf3 CD; essential Sas2-related acetyltransferase 1-associated factor 3) (Saccharomyces cerevisiae) (protein)", "chain": "MVDLEQEFALGGRCLAFHGPLMYEAKILKIWDPSSKMYTSIPNDKPGGSSQATKEIKPQKLGEDESIPEEIINGKCFFIHYQGWKSSWDEWVGYDRIRAYNEENIAMKKRLANEAKEAKK"}, "B4": {"name": "Eaf3 chromodomain (residues 1-120) G19A (domain or fragment, Saccharomyces cerevisiae, UniProt Q12432 1-120, looked up)", "chain": "B3 chain with G19A", "notes": "Eaf3, Saccharomyces cerevisiae, chromodomain, residues 1-120; source: E. coli BL21(DE3)pLysS, purified (Ni-NTA, thrombin, Ni-NTA, Superdex75)"}, "B5": {"name": "Eaf3 chromodomain (Eaf3 CD; essential Sas2-related acetyltransferase1-associated factor 3) (Saccharomyces cerevisiae) (protein)", "chain": "B3 chain"}, "B6": {"name": "Eaf3 chromodomain (residues 1-120) Y23A (domain or fragment, Saccharomyces cerevisiae, UniProt Q12432 1-120, looked up)", "chain": "B3 chain with Y23A", "notes": "as for B4"}, "B7": {"name": "Eaf3 CD: chromodomain (residues 1−120) of budding yeast Eaf3 (protein)", "chain": "B3 chain", "modifications": "left off: His6, end not stated, cleaved", "notes": "chromodomain (residues 1−120) of budding yeast Eaf3"}, "B8": {"name": "Histone H3 peptide dimethylated at Lys36 (H3K36me2), 18 residues (peptide)", "peptide": "SAPSTGGVK(me2)KPHRYKPGT", "notes": "as for B1"}, "B9": {"name": "histone H3 peptide H3K4me2, titration peptide (peptide)", "chain": "ART[Lys(Me2)]QTARKSTGGKAPRY"}}, "key": {"Eaf3 CD Y23A": {"target": "Eaf3 CD Y23A (Saccharomyces cerevisiae, UniProt Q12432, Y23A)", "sequence (Q12432 1-120 Y23A limits assumed)": "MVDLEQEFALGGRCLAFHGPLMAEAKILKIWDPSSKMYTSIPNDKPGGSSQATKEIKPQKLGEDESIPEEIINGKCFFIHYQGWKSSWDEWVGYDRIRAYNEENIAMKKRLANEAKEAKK", "format": "binding", "conditions": "pH 6.8"}, "Eaf3 CD Y81A": {"target": "Eaf3 CD Y81A (Saccharomyces cerevisiae, UniProt Q12432, Y81A)", "sequence (Q12432 1-120 Y81A limits assumed)": "as the sequence (Q12432 1-120 Y23A limits assumed) above, with A23Y, Y81A counted along it", "format": "binding", "conditions": "pH 6.8"}, "Eaf3 CD W84A": {"target": "Eaf3 CD W84A (Saccharomyces cerevisiae, UniProt Q12432, W84A)", "sequence (Q12432 1-120 W84A limits assumed)": "as the sequence (Q12432 1-120 Y23A limits assumed) above, with A23Y, W84A counted along it", "format": "binding", "conditions": "pH 6.8"}, "Eaf3 CD W88A": {"target": "Eaf3 CD W88A (Saccharomyces cerevisiae, UniProt Q12432, W88A)", "sequence (Q12432 1-120 W88A limits assumed)": "as the sequence (Q12432 1-120 Y23A limits assumed) above, with A23Y, W88A counted along it", "format": "binding", "conditions": "pH 6.8"}, "Eaf3 CD (wild-type)": {"target": "Eaf3 CD (wild-type) (Saccharomyces cerevisiae, UniProt Q12432)", "assay": "biochemical", "format": "binding"}, "[1]": {"target": "Histone H3 peptide trimethylated at Lys36 (H3K36me3) none (post-translational modification: K36me3) (UniProt P61830)", "assay": "NMR titration (1H,15N-HSQC chemical shift perturbation), Bruker AVANCE-600", "conditions": "25°C, 20 mM NaCl (given for pH 6.8 and in the pH 8.5 Tris buffer; the wording leaves open whether NaCl was also present at pH 5.2, 6.0 and 7.5), pH 5.2: 10 mM sodium acetate, pH 6.0 and 7.5: 10 mM potassium phosphate, pH 6.8: 10 mM potassium phosphate, pH 8.5: 10 m"}, "[2]": {"target": "Histone H3 peptide trimethylated at Lys36 (H3K36me3) none (post-translational modification: K36me3) (UniProt P61830)", "assay": "NMR pH titration of the free protein (series of 1H,15N-HSQC spectra; His side-chain Hδ2, Hε1, Nδ1, Nε2 and main-chain N shifts)", "conditions": "pH 5.2-10.5; 25°C"}, "[3]": {"target": "T1, Eaf3 chromodomain (residues 1-120), wild type (Saccharomyces cerevisiae)", "T1 construct": "Eaf3, Saccharomyces cerevisiae (budding yeast), chromodomain, residues 1-120; 15N-labelled for the NMR titrations; also called Eaf3 CD; WT; source: E. coli BL21(DE3)pLysS, purified (Ni-NTA, thrombin, Ni-NTA, Superdex75)", "T1 chain": "B3 chain", "assay": "NMR titration; 0.1 mM 15N-labeled Eaf3 CD titrated with unlabeled histone H3 peptide; 1H,15N-HSQC; 10 mM potassium phosphate pH 6.8, 20 mM NaCl, 5 mM deuterated DTT, 25°C; Kd from the titration curves of Ala25", "conditions": "both partners purified"}, "[4]": {"target": "T2, Eaf3 chromodomain (Eaf3 CD, residues 1-120), wild type (S. cerevisiae, UniProt Q12432 1-120)", "T2 construct": "Eaf3 chromodomain (CD), budding yeast (S. cerevisiae), residues 1-120; 15N-labelled for the NMR experiments; expressed from pET15b; also called WT Eaf3 CD; source: E. coli BL21(DE3)pLysS, purified (Ni-NTA, thrombin, Ni-NTA flow-through, Superdex75)", "T2 sequence (looked up)": "B3 chain", "assay": "NMR titration; 0.1 mM 15N-labelled WT or mutant Eaf3 CD titrated with unlabelled histone H3 peptide up to 1:88; 10 mM potassium phosphate pH 6.8, 20 mM NaCl, 5 mM DTT, 25°C; Kd by nonlinear fit of chemical shift change", "conditions": "both partners purified"}, "[5]": {"target": "His18 (UniProt position 18, …)", "assay": "NMR", "conditions": "25 °C, free (no histone peptide), folded"}, "[6]": {"target": "the molecule itself", "assay": "SEC; size exclusion chromatograms of wild-type and mutant Eaf3 CD (Superdex75 in the purification); peaks marked D: dimer, M: monomer"}, "[7]": {"assay": "NMR pH titration of histidine residues (pKa)", "format": "physicochemical", "procedure": "A series of ^1H,^15N-HSQC spectra for 0.1–1.1 mM ^15N-labeled Eaf3 CD were recorded at different pH ranging from 5.2 to 10.5 at 25°C on a Bruker AVANCE-600 spectrometer equipped with a cryogenic probe. The observed chemical shift (δobs) was plotted as a function of pH. pKa values were calculated by a nonlinear least-squares fit of the pH titration curves using the following equation, δobs=[δl+δh×10^(pH-pKa)]/[1+10^(pH-pKa)], where δl and δh represent the chemical shift values at extreme low and high pH, respectively."}}, "note": "Positions count from the first letter of the chain named. Read-outs that look alike come from different tables or passages of the source. Where no end group is shown, it is not given here. [ ]: non-standard residue; d: D form. me2 = dimethylated (di-methylated lysine); Lys(Me3) = C[N+](C)(C)CCCC[C@H](N)C(=O)O; pT = C[C@@H](OP(=O)(O)O)[C@H](N)C(=O)O; Lys(Me2) = CN(C)CCCC[C@H](N)C(=O)O"}
{"molecule": "C[C@H](N)C(=O)N[C@@H](CCCNC(=N)N)C(=O)N[C@H](C(=O)N[C@@H](CCCC[N+](C)(C)C)C(=O)N[C@@H](CCC(N)=O)C(=O)N[C@H](C(=O)N[C@@H](C)C(=O)N[C@@H](CCCNC(=N)N)C(=O)N[C@@H](CCCCN)C(=O)N[C@@H](CO)C(=O)N[C@H](C(=O)NCC(=O)NCC(=O)N[C@@H](CCCCN)C(=O)N[C@@H](C)C(=O)N1CCC[C@H]1C(=O)N[C@@H](CCCNC(=N)N)C(=O)N[C@@H](Cc1ccc(O)cc1)C(=O)O)[C@@H](C)O)[C@@H](C)O)[C@@H](C)O", "note": "[H3K4me3]", "values": [{"measurement": "Dissociation constant (Kd)", "setting": "Eaf3 CD Y23A", "result": "N.B."}, {"measurement": "Dissociation constant (Kd)", "setting": "Eaf3 CD Y81A", "result": "N.B."}, {"measurement": "Dissociation constant (Kd)", "setting": "Eaf3 CD W84A", "result": "N.B."}, {"measurement": "Dissociation constant (Kd)", "setting": "Eaf3 CD W88A", "result": "N.B."}]}
{"molecule": "C[C@H](N)C(=O)N[C@@H](CCCNC(=N)N(C)C)C(=O)N[C@H](C(=O)N[C@@H](CCCC[N+](C)(C)C)C(=O)N[C@@H](CCC(N)=O)C(=O)N[C@H](C(=O)N[C@@H](C)C(=O)N[C@@H](CCCNC(=N)N)C(=O)N[C@@H](CCCCN)C(=O)N[C@@H](CO)C(=O)N[C@H](C(=O)NCC(=O)NCC(=O)N[C@@H](CCCCN)C(=O)N[C@@H](C)C(=O)N1CCC[C@H]1C(=O)N[C@@H](CCCNC(=N)N)C(=O)N[C@@H](Cc1ccc(O)cc1)C(=O)O)[C@@H](C)O)[C@@H](C)O)[C@@H](C)O", "note": "[H3R2ame2K4me3]", "values": [{"measurement": "Dissociation constant (Kd)", "setting": "Eaf3 CD Y23A", "result": "N.B."}, {"measurement": "Dissociation constant (Kd)", "setting": "Eaf3 CD Y81A", "result": "N.B."}, {"measurement": "Dissociation constant (Kd)", "setting": "Eaf3 CD W84A", "result": "N.B."}, {"measurement": "Dissociation constant (Kd)", "setting": "Eaf3 CD W88A", "result": "N.B."}]}
{"molecule": "C[N+](C)(C)CCCC[C@H](N)C(=O)O", "note": "[Kme3, tri-methyl-lysine]", "values": [{"measurement": "Kd", "setting": "Eaf3 CD (wild-type)", "result": "4.44 ± 0.23", "unit": "mM"}]}
{"molecule": "CN(C)C(N)=NCCC[C@H](N)C(=O)O", "note": "[Rame2, asymmetrically di-methylated arginine]", "values": [{"measurement": "Kd", "setting": "Eaf3 CD (wild-type); pH 6.8, read-out: Dissociation constant (Kd)", "result": "> 10", "unit": "mM"}]}
{"molecule": "Eaf3 chromodomain (Eaf3 CD), wild type", "values": [{"measurement": "fold change of binding (relative to pH 6.8)", "setting": "[1]; pH 6.0-6.8", "result": "weakened 2.3-fold on going from pH 6.8 to 6.0"}, {"measurement": "fold change of binding (relative to pH 6.8)", "setting": "[1]; pH 6.8-7.5", "result": "enhanced 2.2-fold on going from pH 6.8 to 7.5"}, {"measurement": "fold change of binding", "setting": "[1]; pH 8.5", "result": "enhanced a further 3.6-fold at pH 8.5"}, {"measurement": "pKa, His18 of Eaf3 CD", "setting": "[2]", "result": "approximately 6.8"}]}
{"molecule": "Eaf3 chromodomain H18A H18A", "values": [{"measurement": "fold change of binding (relative to pH 6.8)", "setting": "[1]; pH 5.2", "result": "decreased by 1.9-fold at pH 5.2"}, {"measurement": "fold change of binding (H18A relative to WT)", "setting": "[1]; pH 6.8", "result": "2.9-fold stronger binding than WT at pH 6.8"}, {"measurement": "fold change of binding (relative to pH 6.8)", "setting": "[1]; pH 8.5", "result": "slightly enhanced by a factor of 1.2-fold at pH 8.5"}]}
{"molecule": "Eaf3 chromodomain H18D H18D", "values": [{"measurement": "fold change of binding (H18D relative to WT)", "setting": "[1]; pH 6.8", "result": "11.7-fold increase relative to WT at pH 6.8"}]}
{"molecule": "B1", "values": [{"measurement": "Kd", "setting": "[3]", "result": "1.94 ± 0.094", "unit": "mM"}]}
{"molecule": "B2", "values": [{"measurement": "Kd", "setting": "[4]", "result": "6.52 ± 0.48", "unit": "mM"}]}
{"molecule": "B3", "values": [{"measurement": "pKa", "setting": "[5]; not stated for the pH titration, the authors state that the pH changes did not disrupt the structure", "result": "approximately 6.8"}]}
{"molecule": "B4", "values": [{"measurement": "stoichiometry N", "setting": "[6]", "result": 2}]}
{"molecule": "B5", "values": [{"measurement": "pKa", "setting": "[5]; the authors state that the pH changes caused no disruption of structure", "result": 6.47}]}
{"molecule": "B6", "values": [{"measurement": "stoichiometry N", "setting": "[6]", "result": 2}]}
{"molecule": "B7", "values": [{"measurement": "observed pKa value of His18", "setting": "[7]; NMR pH titration, 25°C, overall", "result": "approximately 6.8"}, {"measurement": "fraction of Eaf3 CD molecules with protonated His18", "setting": "[7]; at pH 5.2", "result": "almost all"}, {"measurement": "fraction of Eaf3 CD molecules protonated at His18", "setting": "[7]; at physiological pH of 6.8", "result": "almost half"}]}
{"molecule": "B8", "values": [{"measurement": "Kd", "setting": "[3]", "result": "4.41 ± 0.908", "unit": "mM"}]}
{"molecule": "B9", "values": [{"measurement": "Kd", "setting": "[4]", "result": "4.04 ± 0.11", "unit": "mM"}]}
